Results published in paper PMC12354777 (Nature Communications, 2025).
Changes are numbered by the printed parent chain. In names and notes the source's numbering stands.

Target: T1, HR1C peptide of SARS-CoV-2 (residues 937-955), His6-tagged (SARS-CoV-2, UniProt P0DTC2)
T1 chain: SLSSTASALGKLQDVVNQN
Test: BLI

B1: 3D1 mutant Y93A (light chain, CDRL3) (antibody, V domains shown)
VH: QVQLVQSGSELKKPGASVRISCKASGYSFTSLSMNWVRQAPGQGLEWMGWISTKSGDPTYAQAFTGRFVFSLDTSVNTAYLQINSLEAGDTAVYYCARGQPPVGWTFDYWGQGTLVTVSS
VL: QSALTQPPSASGSPGQSVTISCTGTSSDVGGYNYVSWYQQHPGKAPKLIIYEVSKRPSGVPDRFSGSKSGNTASLTVSGLQAEDEADYYCSSATSSSTLVFGGGTKLTVL
- binding result: no binding

B2: 3D1 mutant N35A (heavy chain) (antibody, V domains shown)
VH: B1 VH with N35A
VL: B1 VL with A93Y
- binding result: no binding

B3: 3D1 mutant W105A (heavy chain, CDRH3) (antibody, V domains shown)
VH: B1 VH with W105A
VL: B1 VL with A93Y
- binding result: no binding
